From publication PMC9269880 (Science Advances, 2022)

Assays:
H3K9me3 mononucleosome = H3K9me3 mononucleosome (UniProt P68431); assay: native gel or EMSA
cross-linking = biological target: the molecule itself; assay: cross-linking

Swi6^2XCD-GST (recombinant, 6XHis tag cleaved)
fold increase in H3K9me3 nucleosome binding specificity against WT Swi6 (H3K9me3 mononucleosome): 2 fold

B1: 3XFLAG-Swi6 (natural protein, S. pombe, UniProt P40381 1-328, looked up)
chain: MKKGGVRSYRRSSTSKRSVIDDDSEPELPSMTKEAIASHKADSGSSDNEVESDHESKSSSKKLKENAKEEEGGEEEEEDEYVVEKVLKHRMARKGGGYEYLLKWEGYDDPSDNTWSSEADCSGCKQLIEAYWNEHGGRPEPSKRKRTARPKKPEAKEPSPKSRKTDEDKHDKDSNEKIEDVNEKTIKFADKSQEEFNENGPPSGQPNGHIESDNESKSPSQKESNESEDIQIAETPSNVTPKKKPSPEVPKLPDNRELTVKQVENYDSWEDLVSSIDTIERKDDGTLEIYLTWKNGAISHHPSTITNKKCPQKMLQFYESHLTFRENE
binding result (cross-linking): binds
